Laboratory results as given in patent publication US20260069728A1, “MULTI-TARGETING COMPOUND AND USE THEREOF” (Chengdu Shetai Medical Technology Co., Ltd., priority 2023, published 2026).
Where two headings read alike, the source gives them in different places. *1 amine or outer side, *2 acyl side, *3 side chain or, on linkers, in order; H or OH if unused. Where a SMILES comes first, the peptide text is derived from it. Bridges are numbered along the chain shown (N, C = ends). [ ]: non-standard residue; d: D form. The star is where a group is joined. X1 = N#C[C@@H]1CC(F)(F)CN1C(=O)CNC(=O)c1ccnc2ccc(OCCCN3CCN(*)CC3)cc12; DOTA = O=C(O)CN1CCN(CC(=O)O)CCN(CC(=O)*)CCN(CC(=O)O)CC1; 2Nal = N[C@@H](Cc1ccc2ccccc2c1)C(=O)O; Cit = NC(=O)NCCC[C@H](N)C(=O)O; Suc = O=C(CCC(=O)[*:2])[*:1]; AEEA = NCCOCCOCC(=O)O

How the values were obtained:
[1] = Determination of hydrophilicity/lipophilicity (n-octanol/water distribution coefficient); assay type: physicochemical; settings: HEPES buffer pH=7.4 / n-octanol
Experimental: 10 μL of Purified ^68Ga-SDYD01 was diluted to 500 μL with HEPES buffer (pH=7.4), then 500 μL of n-octanol was added. The mixture was vortexed for 30 min and then centrifuged. Subsequently, 450 μL each of the aqueous and organic phases were taken and centrifuged again. Then, 100 μL each of the aqueous and organic phases were taken, and the radioactivity was measured using a γ counter to calculate the n-octanol/water distribution coefficient (Log Do/w). The measured Log Do/w value for ^68Ga-SDYD01 was −2.54±0.01, and for ^177Lu-SDYD01 was −2.55±0.05.
(§1) 10 μL of purified ^68Ga-SDYD02 was diluted to 500 μL with HEPES buffer (pH=7.4), then 500 μL of n-octanol was added. […] Then, 100 μL each of the aqueous and organic phases were taken, and the radioactivity was measured using a γ counter to calculate the n-octanol/water distribution coefficient (Log Do/w). The measured Log Do/w value for ^68Ga-SDYD02 was −2.47±0.03, and for ^177Lu-SDYD02 was −2.35±0.02.
as §1, with “^68Ga-SDYD05” for “^68Ga-SDYD02”, “−2.37±0.02,” for “−2.47±0.03,”, “^177Lu-SDYD05” for “^177Lu-SDYD02”, “−2.46±0.05. […]” for “−2.35±0.02.”

[2] = tested on: subcutaneous xenograft tumors (U87 MG cells); experiment: Small animal PET imaging and biodistribution study; assay type: in vivo, NSG mice
Outline: (§2)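 NSG mice bearing ~150 mm^3 subcutaneous U87 MG tumours received ~7.4 MBq of 68Ga-labelled tracer i.v., with micro-PET/CT static 20-min 3D scans at 30, 60 and 120 min. For biodistribution, mice were euthanised at 30/60/120 min, or 30/60/90 min for SDYD07, SDYD08 and SDYD07-1. Tissue radioactivity was decay-corrected and expressed as SUV and %ID/g.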

[3] = Small animal PET imaging and biodistribution study; assay type: in vivo, NSG mice; settings: NSG, mouse, in vivo, iv, 7.4 MBq, total radioactivity
Outline: as §2

[4] = absolute uptake value in the tumor

Row | Compound | n-octanol/water distribution coefficient (Log Do/w) [1] | radioactive uptake in the tumor sites (in words) ([2]; mouse, in vivo) | tissue uptake at 0.5 h [3, 4] | tissue uptake at 1 h [3, 4] | radioactive uptake in the tumor sites (in words) ([2]; tail vein injection, U87 MG tumor-bearing NSG mice) | tissue uptake at 0.5 h ([3]; 30 minutes post-injection, read-out: absolute uptake value in the tumor) | tissue uptake at 1 h ([3]; 60 minutes post-injection, read-out: absolute uptake value in the tumor)
1 | N#C[C@@H]1CC(F)(F)CN1C(=O)CNC(=O)c1ccnc2ccc(OCCCN3CCN(C(=O)CCC(=O)N[C@@H](CCCCNC(=O)CN4CCN(CC(=O)O)CCN(CC(=O)O)CCN(CC(=O)O)CC4)C(=O)NCCOCCOCC(=O)NCCOCCOCC(=O)N[C@@H](CCCNC(=N)N)C(=O)N[C@@H](CCCNC(=N)N)C(=O)N[C@@H](Cc4ccc5ccccc5c4)C(=O)N[C@H]4CSSC[C@@H](C(=O)N[C@@H](CCCNC(=N)N)C(N)=O)NC(=O)[C@H](CCCNC(N)=O)NC(=O)[C@H](CCCNC(=N)N)NC(=O)[C@H](Cc5ccc(O)cc5)NC(=O)[C@@H]5CCCN5C(=O)[C@H](CCCCN)NC(=O)[C@H](CCCCN)NC(=O)[C@H](CCCNC(N)=O)NC(=O)[C@H](Cc5ccc(O)cc5)NC4=O)CC3)cc12 [^68Ga-SDYD01, metal not drawn] ({X1-Suc}-K(DOTA)[AEEA][AEEA]RR[2Nal]CY[Cit]KKPYR[Cit]CR-NH2; disulfide 7-16) | −2.54±0.01 | significant radioactive uptake in the tumor sites | ≥ 10 %ID/g | ≥ 10 %ID/g | – | – | –
2 | CCCCCC(=O)N[C@H]1CSCc2cc(CSCCNC(=O)[C@H](CCCCNC(=O)CN3CCN(CC(=O)O)CCN(CC(=O)O)CCN(CC(=O)O)CC3)NC(=O)COCCOCCNC(=O)COCCOCCNC(=O)CCN3C(=O)CC(SCCNC(=O)CCC(=O)NCc4ccc(NC(=O)COCC(=O)N[C@H](Cc5ccccc5)C(=O)N[C@@H](CCC(N)=O)C(=O)N[C@@H](Cc5c[nH]c6ccccc56)C(=O)N[C@@H](C)C(=O)N[C@H](C(=O)NCC(=O)N[C@@H](Cc5c[nH]cn5)C(=O)NC(CC(C)C)CC(C)C)C(C)C)cc4)C3=O)cc(c2)CSC[C@@H](C(=O)O)NC(=O)[C@H](Cc2ccccc2)NC(=O)[C@H](CCC(N)=O)NC(=O)C([C@@H](C)O)NC(=O)[C@@H]2CCCN2C(=O)[C@@H]2CCCN2C1=O (some centres unmarked) [^68Ga-SDYD04, metal not drawn] | −1.63±0.07 | – | – | – | significant radioactive uptake in the tumor sites | ≥ 10 %ID/g | ≥ 10 %ID/g
